± gives the uncertainty stated by the source.
B1: Far upstream element-binding protein 2, residues 142 to 214; numbered along this chain, Q92945 (parent)
chain: RTSMTEEYRVPDGMVGLIIGRGGEQINKIQQDSGCKVQISPDSGGLPERSVSLTGAPESVQKAKMMLDDIVSR

Variants of: B1
Experiment: abundance fitness (aPCA) (normalised: wild type 0, dead -1); higher = more abundant; growth selection in yeast, the domain comes from the species named
Details: Homo sapiens

Variant	abundance fitness
S33H	-0.854 ± 0.11
S33L	-0.575 ± 0.055
S33M	-0.806 ± 0.086
S43Q	-0.027 ± 0.052
S43R	-0.023 ± 0.041
S43K	-0.1 ± 0.064
S43V	-0.11 ± 0.049
S43W	-0.212 ± 0.054
S43L	-0.116 ± 0.048
S72V	-0.085 ± 0.045
S72H	0.019 ± 0.066
S72G	0.118 ± 0.04
S72P	-0.282 ± 0.056
Q61L	-0.109 ± 0.05
Q61P	-0.618 ± 0.062
T2G	-0.04 ± 0.044
T2L	-0.079 ± 0.046
T2I	-0.04 ± 0.076
G22W	-0.308 ± 0.051
I19V	-0.016 ± 0.049
I19G	-0.146 ± 0.054

Variant	abundance fitness
I70L	0.051 ± 0.041
E24G	-0.215 ± 0.039
E24Y	0.05 ± 0.11
A63Q	-0.654 ± 0.085
T54L	-0.256 ± 0.047
T54V	-0.058 ± 0.046
T54E	-0.135 ± 0.054
P11R	-0.299 ± 0.041
P11K	-0.178 ± 0.06
P11G	-0.472 ± 0.048
P11I	-0.277 ± 0.1
K64Q	-0.422 ± 0.063
D69L	-0.143 ± 0.051
D69G	-0.057 ± 0.04
E6Y	-0.147 ± 0.066
G16T	-0.101 ± 0.052
G16H	-0.019 ± 0.075
M14I	-0.003 ± 0.065
M14H	-0.235 ± 0.063
M14T	-0.21 ± 0.047
D32E	-0.101 ± 0.061

Variant	abundance fitness
D32L	-0.005 ± 0.05
G23T	-0.27 ± 0.067
P47C	-0.014 ± 0.076
I18D	-0.312 ± 0.063
I18G	-0.363 ± 0.037
I18P	-0.324 ± 0.055
I18H	-0.51 ± 0.072
L17W	-0.111 ± 0.05
Q30H	-0.384 ± 0.088
S52R	0.01 ± 0.036
S52N	-0.177 ± 0.093
S52D	-0.312 ± 0.067
S52Q	-0.011 ± 0.055
S52Y	0.097 ± 0.083
Q31E	-0.08 ± 0.058
Q31V	-0.207 ± 0.05
G13D	0.134 ± 0.061
G13S	0.122 ± 0.041
I26T	-0.451 ± 0.061
I26K	-0.352 ± 0.068
I26R	-0.533 ± 0.039

Variant	abundance fitness
V15I	-0.06 ± 0.079
V15G	-0.282 ± 0.058
V15K	-0.251 ± 0.085
V15C	-0.22 ± 0.077
L46G	0.07 ± 0.039
L46W	-0.171 ± 0.047
L46D	-0.045 ± 0.06
S50V	-0.002 ± 0.046
R9W	-0.033 ± 0.044
R9T	0.053 ± 0.05
R9H	0.135 ± 0.069
V51D	-0.834 ± 0.083
V51G	-0.832 ± 0.048
V51F	-0.089 ± 0.088
S3P	0.043 ± 0.043
S3D	0.17 ± 0.058
R73K	0.016 ± 0.069
R73L	-0.004 ± 0.054
L53T	-0.648 ± 0.062
L53C	-0.379 ± 0.082
L53S	-0.754 ± 0.061
